Assay results: article PMC8036708

Legend:
[1] = biological target: adenovirus terminal protein-thioredoxin fusion protein (TP–Trx), bacterially expressed (adenovirus (serotype not given))
[2] = biological target: adenovirus terminal protein-thioredoxin fusion protein (TP–Trx), bacterially expressed (adenovirus (serotype not given)); test: AlphaScreen or HTRF; 30 nM TP–Trx (or Trx tag alone) on nickel NTA donor beads, serial dilutions of GST-tagged importins or GST control on GST acceptor beads; 0.5% BSA added, dilutions in PBS, room temperature in the dark; one-phase association fit

With “importin β1 (Imp β1), GST-tagged (from UniProt P70168 1-876) (natural protein)” the Nf/Cf of TP–Trx–AF594 microinjected into HeLa cells incubated with importazole (40 µM), a selective Imp β inhibitor; 1.62 with DMSO [1] was 1.04 and the Kd [2] was 21 nM.
